# Measured values reported in PMC9458469 (The Journal of Cell Biology, 2022).
# B1: Hsp-16.1 (purified) (natural protein, C. elegans, UniProt P34696 1-145, looked up)
# chain: MSLYHYFRPAQRSVFGDLMRDMAQMERQFTPVCRGSPSESSEIVNNDQKFAINLNVSQFKPEDLKINLDGHTLSIQGEQELKTEHGYSKKSFSRVILLPEDVDVGAVASNLSEDGKLSIEAPKKEAIQGRSIPIQQAPVEQKTSE
# What was measured:
# [1] = target: Hsp-12.1 (purified) (C. elegans); assay: SEC
# [2] = target: the molecule itself; assay: SEC
Molecule,stoichiometry N [1] [subunits],stoichiometry N [2] [subunits]
Hsp-12.1 (purified) (natural protein),4,
B1,,~34
